According to the supplement of paper PMC9170038:

Test system: MS2 coat protein
Test: apparent KD of MS2 coat protein; designed switch direction (-1 OFF switch, 1 ON switch): -1; higher = weaker reporter binding
Outline: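 RNA switches sharing common flanks were transcribed by stalled E. coli RNA polymerase on Illumina chips. A doubling series of SNAP-549-labelled MS2 coat protein, from 0.7 or 1.5 nM to 3 µM, was applied in Tris-HCl pH 7.5 buffer with KCl, MgCl2, BSA, DTT, tRNA and Tween-20. Each step lasted 0.8–1.5 h at the bottom of the series and 10–20 min at the top. Normalised cluster fluorescence was curve-fitted, giving apparent KD as the per-design median over clusters.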

[1] = Eterna round: R95, input ligand: FMN 200 uM
[2] = Eterna round: R95, input ligand: microRNA oligo, concentration not stated
[3] = Eterna round: R95, input ligand: none
[4] = input ligand: microRNA oligo, concentration not stated

UUCCUACAUGAGGAUCACCCAUGUCAGGAUAUAUAAAACGCUCAGAUAAAAGAGCAAGAUAGAAGGGAUUGGGA [Aquis] (Eterna round: R97, puzzle: Exclusion 1)
apparent KD of MS2 coat protein (input ligand: FMN 200 uM): 14.5 nM
apparent KD of MS2 coat protein (input ligand: none): 15.1 nM

GUUUGACAUGAGGAUCACCCAUGUGAGGAUAUCGUCUGGUACGUGUUGGCUGGCAUCUCGAGAAGGCGCAUAGG [Exclusion 1 V57] (puzzle: Exclusion 1)
apparent KD of MS2 coat protein [1]: 75.9 nM
apparent KD of MS2 coat protein [2]: 49.7 nM
apparent KD of MS2 coat protein [3]: 64.9 nM

AACAGUACAGGAUAUACAUGAGGAUCACCCAUGUGAGACUUAAGUGGCGUACCACAAAGUAGAAGGGUACUGGA [JL Maslow Revisted mod 8] (Eterna round: R96, puzzle: Exclusion 3)
apparent KD of MS2 coat protein (input ligand: FMN 200 uM): 838 nM
apparent KD of MS2 coat protein [4]: 85.9 nM
apparent KD of MS2 coat protein (input ligand: none): 90.3 nM

UAGAUGGGAGGAUAUGCAUAGAUACAGAUUCAUGUAGUGCUACAUGAGGAUCACCCAUGUAGAAGGCCCGUCUU [JL-ex2-2.20 Mayanne mod] (Eterna round: R96, puzzle: Exclusion 2)
apparent KD of MS2 coat protein (input ligand: FMN 200 uM): 208 nM
apparent KD of MS2 coat protein [4]: 22.1 nM
apparent KD of MS2 coat protein (input ligand: none): 24.1 nM

GUGUACGGAGGAUAUGUAUGGGCAGGCUGACCUGCAGCUUCACAUGAGGAUCACCCAUGUAGAAGGCUGUGCAC [JL-ex2-2.09 Brourd mod] (puzzle: Exclusion 2)
apparent KD of MS2 coat protein [2]: 10.7 nM

UGAGUGCUGCGAGGAUAUACAUGAGGAUCACCCAUGUUUUCGUGUGAGGCUUUGCCUCACACGAAGUAGAAGGCGCAGUACUCU [JL ENG2 1.12] (Eterna round: R96, puzzle: Exclusion NG 2)
apparent KD of MS2 coat protein (input ligand: FMN 200 uM): 10.8 nM
apparent KD of MS2 coat protein [4]: 11.8 nM
apparent KD of MS2 coat protein (input ligand: none): 12.3 nM

CCGCAUAAGCAGGAUAUCGUAUCGGAUACGAUACGAGAAGGGUUUACAUGAGGAUCACCCAUGUUCCUUAGCGG [Fiskers Ex 6 - 31] (puzzle: Exclusion 6)
apparent KD of MS2 coat protein [2]: 26.2 nM

UUGUUAUAUGAAGGAUAUACUUAACAUGAGGAUCACCCAUGUGGUGUUGUGAGUGAGUGAGUUUAGUAGAAGGUCAAUUCUUUU [JMF's solution 94] (Eterna round: R96, puzzle: Exclusion NG 2)
apparent KD of MS2 coat protein (input ligand: FMN 200 uM): 735 nM
apparent KD of MS2 coat protein [4]: 440 nM
apparent KD of MS2 coat protein (input ligand: none): 421 nM

AUAUGCAAGUAAAGAUCCUACAUGAGGAUCACCCAUGUGCUCGUCUUAUAAAGUACUAUCACGAAAGUGAUAGUACA [Mat - Sensor v3 - turn-off var 1 - Eli Mod - D84] (puzzle: Sensor v3, turn-off variant 1)
apparent KD of MS2 coat protein [1]: 215 nM
apparent KD of MS2 coat protein [2]: 15.6 nM
apparent KD of MS2 coat protein [3]: 170 nM

GUACACGGCUAGGAUAUCAUUCCUUGCGACCCUUGAGAAGGAGCCACAUGAGGAUCACCCAUGUCAUAUGCAGA [Eternabot (Original) Solution 38] (Eterna round: R97, puzzle: Exclusion 6)
apparent KD of MS2 coat protein (input ligand: FMN 200 uM): 37.5 nM
apparent KD of MS2 coat protein (input ligand: none): 33.2 nM

AUCAGCUCGUGAGGAUAUACAUCACUGCUUCGGCAGUGUAUUAAGAUCACAUGAGGAUCACCCAUGUAGAAGGUACGAGCUGAU [ENG2/2-C3] (Eterna round: R96, puzzle: Exclusion NG 2)
apparent KD of MS2 coat protein (input ligand: FMN 200 uM): 215 nM
apparent KD of MS2 coat protein [4]: 20.8 nM
apparent KD of MS2 coat protein (input ligand: none): 26.1 nM

CAGUACUGAGGAUAUACAUGAGGAUCACCCAUGUGUUCCAGCUAGGAAACUAGCAAAAGUAGAAGGCAGUACUG [salish99_ex3_r3_064] (puzzle: Exclusion 3)
apparent KD of MS2 coat protein [1]: 285 nM
apparent KD of MS2 coat protein [2]: 19.6 nM
apparent KD of MS2 coat protein [3]: 22.4 nM

AAGUCCAGAGGAUAUCAGACGCGGCACAUGAGGAUCACCCAUGUAUUCCCGUCUGCCGACUGAGAAGGUUGGAAAG [Vesoarusqu] (puzzle: Exclusion 5)
apparent KD of MS2 coat protein [2]: 11.1 nM

UUUGUUUUGCAAGGAUAUGUUUAAUUUUAGUUUCCUUACACAUGAGGAUCACCCAUGUUAUACUUACAGAAGGUGCGUAAUUUG [Excl-NG2-LRO03] (Eterna round: R96, puzzle: Exclusion NG 2)
apparent KD of MS2 coat protein [4]: 122 nM

AGUAGUAGUUUCCGUUCUUACAUGAGGAUCACCCAUGUUUCUUGACGUGCACGCGAUGCUCGUCAGACUACCAGAUG [salish99_TOv1_r3_056] (puzzle: Sensor v3, turn-off variant 1)
apparent KD of MS2 coat protein [1]: 39.3 nM
apparent KD of MS2 coat protein [2]: 51.3 nM
apparent KD of MS2 coat protein [3]: 56.9 nM

CCCGUGUAAGGAUAUGACAAUGGUAUCUUCGGAUACCAUUGUCAGAAGGUACAUGAGGAUCACCCAUGUAACAC [Ex4-3: 14] (puzzle: Exclusion 4)
apparent KD of MS2 coat protein [2]: 28 nM

ACAUGAGGAUCACCCAUGUCUGGCUGGUCCGCUCCGGCUGUUGAGGAUAUAGCUCGGUGUCCGCGCUAGAAGGUGAGGGCCGGC [Aenatbe mod 33] (Eterna round: R96, puzzle: Exclusion NG 3)
apparent KD of MS2 coat protein (input ligand: FMN 200 uM): 22.4 nM
apparent KD of MS2 coat protein [4]: 18.6 nM
apparent KD of MS2 coat protein (input ligand: none): 25.1 nM

GUGUAGUGAGGAUAUACAUGAGGAUCACCCAUGUGAAUAAGAUAGAAUAAGAUAAAGUGUAGAAGGCACAGUGU [Excluse me!!! 3 - Jieux - Exclusion 3] (puzzle: Exclusion 3)
apparent KD of MS2 coat protein [1]: 39.5 nM
apparent KD of MS2 coat protein [2]: 35.7 nM
apparent KD of MS2 coat protein [3]: 41.9 nM

AGACGUCAAGUCAGGAUAUAGAGGCAAGUCCACCGCUAGAAGGGACAUGAGGAUCACCCAUGUAGGGUUUAGCU [Zainsoed] (puzzle: Brourd's mod of Exclusion 4)
apparent KD of MS2 coat protein [1]: 101 nM
apparent KD of MS2 coat protein [2]: 157 nM
apparent KD of MS2 coat protein [3]: 135 nM

AUCGUACAGCAAAGCUGUACGAGUACAUGAGGAUCACCCAUGUAGGAUAUGGUACGCAAAGCGUGCUAGAAGGAUAUGAGAUUU [Mat - Exclusion NG 3 - Mod of JL - D101] (Eterna round: R96, puzzle: Exclusion NG 3)
apparent KD of MS2 coat protein (input ligand: FMN 200 uM): 48.5 nM
apparent KD of MS2 coat protein [4]: 30.4 nM
apparent KD of MS2 coat protein (input ligand: none): 48.7 nM

UGUUGGCGAGGAUAUACAUGAGGAUCACCCAUGUGAGAGAAAAAAGUGAGGAAGAAAAGUAGAAGGCGCUGACG [salish99_ex3_r3_043] (puzzle: Exclusion 3)
apparent KD of MS2 coat protein [1]: 209 nM
apparent KD of MS2 coat protein [2]: 40 nM
apparent KD of MS2 coat protein [3]: 45.4 nM

GGACUGCGACACAGCCAAACAAAACAUGAGGAUCACCCAUGUCAGGAUAUACCGAUGCAGCAUCUGUAGAAGGGACAGAUCCAA [Qusorave] (Eterna round: R96, puzzle: Exclusion NG 3)
apparent KD of MS2 coat protein (input ligand: FMN 200 uM): 80.3 nM
apparent KD of MS2 coat protein [4]: 45.4 nM
apparent KD of MS2 coat protein (input ligand: none): 85.9 nM

CUGGAUAGAGGAUAUUGUACUGCUGACAUGAGGAUCACCCAUGUAUGUUAACUCGGCCGUCGAGAAGGCUAACAAA [BotMod 14 - Jieux - Exclusion 5] (Eterna round: R97, puzzle: Exclusion 5)
apparent KD of MS2 coat protein (input ligand: FMN 200 uM): 16.3 nM
apparent KD of MS2 coat protein (input ligand: none): 33.4 nM

UCAGUUAUGCGAGGAUAUCGACCUUUCCUCUUAACAUGAGGAUCACCCAUGUGCUAAUCCUUCAACGAGAAGGCGCUCAAACUC [JR_ExcNG2_Sub070] (Eterna round: R96, puzzle: Exclusion NG 2)
apparent KD of MS2 coat protein (input ligand: FMN 200 uM): 260 nM
apparent KD of MS2 coat protein [4]: 170 nM
apparent KD of MS2 coat protein (input ligand: none): 209 nM

CAGUACUGAGGAUAUACAUGAGGAUCACCCAUGUGUCCCAGCUAGGAAACUAGCAAAAGUAGAAGGCAGUACUG [Fiskers Ex 3 828 mod 1] (puzzle: Exclusion 3)
apparent KD of MS2 coat protein [1]: 420 nM
apparent KD of MS2 coat protein [2]: 24.4 nM
apparent KD of MS2 coat protein [3]: 24.5 nM
